The values below come from US20140206846A1 (published 2014).

One test concerns the target T1, human IL6 (human, UniProt P05231 30-212).
T1 construct: Bought recombinant protein
The experiment in a line: Biacore SPR, Fab captured by anti-light chain antibody, IL6 as analyte. On the procedure: Antibody libraries were selected against human VEGF (Peprotech catalogue number 100-20) and human IL6 (Peprotech catalogue number 200-06). Of the isolated parental antibody clones, IL6P and VEGFP were combined into the bi-specific antibody clone VH6L. […] To assess the affinities of parental and bi-specific antibodies, Biacore™ analysis was performed in order to analyze the binding behaviour of IL6P, VH6L and VEGFP. For this, an anti-light chain capture antibody was immobilized onto a CM5 chip using amine-coupling, resulting in 12000 RU. Fab fragments were captured to a level of 400-500 RU and a concentration series of IL6 and VEGF, ranging from 0 to 450 nM, was passed over the chip. As depicted in FIG. 7, clone IL6P binds to IL6, but not to VEGF, clone VEGFP binds to VEGF, but not to IL6, and the combined clone VH6L binds to both IL6 and VEGF.

The next test deals with T2, HEL (UniProt P00698 19-147, biotinylated).
T2 construct: Control target of the ELISA
T2 sequence (P00698 19-147): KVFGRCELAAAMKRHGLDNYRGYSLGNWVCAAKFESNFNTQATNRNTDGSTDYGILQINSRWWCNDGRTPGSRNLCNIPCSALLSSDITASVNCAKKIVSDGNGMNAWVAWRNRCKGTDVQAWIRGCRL
The test is described as follows: ELISA, biotinylated target (20 nM) on streptavidin plates, Fab in culture supernatant. On the procedure: To test the specificity of antibodies selected from Lib1 and Lib2 libraries against one target and the specificity of bi-specific antibodies designed to bind both targets, Enzyme-linked immunosorbent assays (ELISAs) were performed using standard methods. Briefly, Nunc Maxisorp plates were prepared by coating with Streptavidin dissolved in 1×PBS, binding 20 nM of biotinylated targets (GST, MBP, HEL or VEGF) in PBS-T (0.3% Tween-20 dissolved in 1×PBS) and blocking with 5% skimmed milk powder in PBS-T. Thereafter, 50 μl of E. coli TG1 culture supernatant expressing antibody clones as soluble Fab fragments in microtiter plates were added, followed by detection of bound Fab fragments using goat anti-human kappa light chain polyclonal antibody (Sigma) or mouse anti-Strep tag antibody (IBA) specific for a Strep-Il tag fused to the C-terminus of the heavy chain in the soluble Fab expression construct. Secondary antibodies were detected using HRP-labeled tertiary antibodies, ELISAs were developed using TMB substrate (KPL), and signal was quantified using a Victor plate reader from PerkinElmer set to 450 nm. […] None of the clones bound the control targets HEL or VEGF (FIG. 5). Experiments were performed in duplicate using two independent colonies for each Fab.

B1: IL6P (Fab, V domains shown)
VH: EVQLVESGGGLVQPGGSLRLSCAASGFTFSSYAMSWIRQAPGKGLEWIGQISGSGGSTVYNYNVLGRFTISRDNSKNTLYLQMNSLRAEDTAVYYCARDSGYFDIWGQGTLVTVSS
VL: NIQKTQSPSSLSASVGDRVTITCRALWHISSYLAWYQQKPGKAPKLLIYAASSLYSGVPSRFSGSGSGTDFTLTISSLQPEDFATYYCQQYSGLPYTFGQGTKVEIKR
Turning to B1, the Kd in the test with human IL6 was found to be 38 nM.

B2: VH6L (bispecific antibody, V domains shown)
VH: YYQLVESGGGLVQPGGSLRLSCAADGFLFSGYAMSWIRQAPGKGLEWIGQISGSGGSTVYNYNVLGRFTISRDNSKNTLYLQMNSLRAEDTAVYYCARDTGYFDHWGQGTLVTVSS
VL: NIQKTQSPSSLSASVGDRVTITCRALWHISSYLAWYQQKPGKAPKLLIYAASHLHYGVPSRFSGSGSGTDFTLTISSLQPEDFATYYCQQYSGLPYTFGQGTKVEIK
notes: Combination of IL6P and VEGFP; two paratopes in one VH-VL pair; tested as Fab fragment; also called bi-specific antibody clone VH6L; combined clone VH6L
For B2, binding in the test with human IL6 was put at a Kd of 40 nM.

B3: Dummy 1 Fab (Fab, V domains shown)
VH: EVQLVESGGGLVQPGGSLRLSCAASGFTFSSYAMSWIRQAPGKGLEWIGQISGSGGSTYYNDNVLGRFTISRDNSKNTLYLQMNSLRAEDTAVYYCARDSGYFDIWGQGTLVTVSS
VL: DTQMTQSPSSLSASVGDRVTITCRASQSISSYLAWYQQKPGKAPKLLIYAASSLYSGVPSRFSGSGSGTDFTLTISSLQPEDFATYYCQQYSSLPYTFGQGTKVEIK
notes: Tested as soluble Fab in E. coli TG1 culture supernatant; Strep-II tag fused to the C-terminus of the heavy chain
Take B3: the binding result in the test with HEL was “no binding”.
